In US11976099B2, “Compositions and methods for treatment of bone associated diseases” (THE NATIONAL INSTITUTE FOR BIOTECHNOLOGY IN THE NEGEV LTD., priority 2016, dated 2024):
Changes are numbered by the printed parent chain. Names and notes keep the numbering of the source.

B1: M-CSFM: 158 amino acid M-CSF with cysteine at position 31 replaced by serine (SEQ ID NO: 2) (protein)
chain: EEVSEYCSHMIGSGHLQSLQRLIDSQMETSSQITFEFVDQEQLKDPVCYLKKAFLLVQDIMEDTMRFRDNTPNAIAIVQLQELSLRLKSCFTKDYEEHDKACVRTFYETPLQLLEKVKNVFNETKNLLDKDWNIFSKNCNNSFAECSSQGHERQSEGS
B2: M-CSFC31S,M27R: M-CSF double mutant containing both C31S and M27R; monomeric, monospecific c-FMS antagonist (protein)
chain: B1 chain with M27R
B3: 5.6: bispecific M-CSFRGD variant from sort five; M-CSFM loop replaced by XXXRGDXXX motif; binds c-FMS and αvβ3 integrin (protein)
chain: EEVSEYCSHMIGSGHLQSLQRLIDTYPRGDMCSITFEFVDQEQLKDPVCYLKKAFLLVQDIMEDTMRFRDNTPNAIAIVQLQELSLRLKSCFTKDYEEHDKACVRTFYETPLQLLEKVKNVFNETKNLLDKDWNIFSKNCNNSFAECSSQGHERQSEGS
modifications: left off: small tags and cut ends

Tests used:
[1] = test system: MDA-MB-231 breast cancer cells; assay: Direct cell binding assay, flow cytometry, MDA-MB-231; assay type: cell-based, human; conditions: for direct cell binding: 1 μM, 2.5 μM and 7.5 μM labeled protein; for relative cell binding ability: MDA-MB-231
Procedure: M-CSFM and two variants of M-CSFRGD (4.22 and 5.6) were labeled with a molar ratio of 1:1 of DyLight™ 488 NHS Ester (Thermo Fisher Scientific, USA) and the purified protein. The solution was incubated for 1 h at room temperature and the residual unbound dye was washed three times with Vivaspin (GE Healthcare life sciences, UK) with a 3,000 Da cutoff. […] MDA-MB-231 breast cancer cells were used for direct cell binding of the purified proteins. Cells were plated at a density of 10^5 per well in 96-well plates and were washed with […] of PBSA 0.1%. The cells were centrifuged at 150 g for 5 min, and the supernatant was removed; this step was repeated twice. Then, the labeled M-CSFRGD protein variants and the M-CSFM monospecific control were added in IBB+1% BSA to the cells at different concentrations (1, 2.5 and 7.5 μM) in a total volume of 100 μl and incubated at 4° C. with gentle agitation for 2 h. For c-FMS expression, the cells were stained with PE-anti human CD115 (BioLegend, USA) at a dilution of 1:50 and for αvβ3 integrin expression with FITC-anti human β3 integrin (BioLegend, USA) at a dilution of 1:25 for 30 min. Then, the cells were washed twice as described above and analyzed with Accuri C6 flow cytometry analyzer (BD Biosciences, USA). The mean fluorescence of the cells was subtracted from the other samples. The experiment was repeated three times at each concentration.
Assays for direct cell binding were conducted on breast cancer cell line MDA-MB-231 and murine primary cells with flow cytometer. MDA-MB-231 was used because the cells express αvβ3 integrin and c-FMS on the cell membrane, a protein expression pattern that imitates the osteoclast state just before reaching full differentiation and maturation. […] Murine primary cells that were obtained from bone marrow were tested for binding without any induction of differentiation (t=0). Such cells express high levels of c-FMS and low levels of αvβ3 integrin (FIGS. 11A and 11B), a state that imitates an early osteoclast differentiation stage.

[2] = molecular target: human c-FMS (Homo sapiens, UniProt P07333); assay: c-FMS phosphorylation assay in CD14+ monocytes (western blot); assay type: cell-based; design: host or cells: human peripheral blood CD14+ monocytes; conditions: CD14+ cells; 0.5 nM human M-CSFWT + 100 nM variant
human c-FMS, sequence (P07333 20-972): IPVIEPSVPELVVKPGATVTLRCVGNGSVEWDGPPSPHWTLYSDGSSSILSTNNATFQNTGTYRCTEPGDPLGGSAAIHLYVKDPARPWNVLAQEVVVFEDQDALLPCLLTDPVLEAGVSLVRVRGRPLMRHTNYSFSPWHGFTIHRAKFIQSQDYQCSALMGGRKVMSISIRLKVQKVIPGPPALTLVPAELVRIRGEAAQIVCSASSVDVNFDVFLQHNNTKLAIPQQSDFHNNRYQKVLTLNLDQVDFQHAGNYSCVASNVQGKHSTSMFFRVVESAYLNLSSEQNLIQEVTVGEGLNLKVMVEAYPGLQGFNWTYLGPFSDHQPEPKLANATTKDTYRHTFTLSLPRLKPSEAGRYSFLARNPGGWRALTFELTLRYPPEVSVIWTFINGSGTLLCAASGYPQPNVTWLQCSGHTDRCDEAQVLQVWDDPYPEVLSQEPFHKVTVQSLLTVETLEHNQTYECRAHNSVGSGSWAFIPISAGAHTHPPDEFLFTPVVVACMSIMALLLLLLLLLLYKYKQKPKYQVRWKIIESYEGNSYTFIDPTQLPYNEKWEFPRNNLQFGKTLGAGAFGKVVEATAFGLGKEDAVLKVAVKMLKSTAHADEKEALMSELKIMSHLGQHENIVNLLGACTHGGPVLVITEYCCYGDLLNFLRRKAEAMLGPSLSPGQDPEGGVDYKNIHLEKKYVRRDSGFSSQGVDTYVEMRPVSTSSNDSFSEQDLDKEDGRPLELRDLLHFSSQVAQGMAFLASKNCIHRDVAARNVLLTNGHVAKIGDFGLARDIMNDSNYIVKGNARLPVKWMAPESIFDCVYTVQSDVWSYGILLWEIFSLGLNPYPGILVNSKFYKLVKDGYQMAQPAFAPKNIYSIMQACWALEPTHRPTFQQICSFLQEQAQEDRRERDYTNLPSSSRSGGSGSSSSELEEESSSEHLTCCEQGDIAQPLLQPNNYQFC
Procedure: Phosphorylation assay—The experiment was performed on two cell types, BMMs and human peripheral blood CD14^+ monocytes, as follows: (i) BMMs from wild-type C57BL6 mice were purified by flushing the bone marrow from the femur and tibia as previously described (Levaot, N., Simoncic, P. D., Dimitriou, I.D., Scoffer, A., La Rose, J., Ng, A. H. M. et al. (2011) J. Clin. Invest. 121, 3244-3257). The cells were treated with ACK red cells lysis buffer (ThermoFisher Scientific, USA) and grown in complete α-MEM growth medium (Sigma-Aldrich, USA) containing 10% fetal bovine serum (FBS) (selected to not contain LPS to prevent macrophage differentiation), penicillin, streptomycin and L-glutamine. Recombinant murine M-CSF was added at a concentration of 40 ng/ml (Peprotech, Israel) for three days at 37° C. to induce adhesion and proliferation of monocytes. Then, 7×10^5 cells were transferred into a 6-well plate with complete α-MEM and 20 ng/ml murine M-CSF and RANKL (R&D Systems, USA) for 48 h. (ii) CD 14^+ monocytes (Lonza, Switzerland) were grown in complete α-MEM medium for five days in the presence of human M-CSF (20 ng/mL). […] The images were quantified using ImageJ. The quantified intensity values of the phosphorylated c-FMS for each sample were divided by the total c-FMS intensity, and then by the β-actin expression intensity. […]

| Molecule | direct cell binding [1] | relative cell binding ability [1] | c-FMS phosphorylation level [2] |
| --- | --- | --- | --- |
| B1 | showed binding | weakest binder | acted as an agonist, inducing phosphorylation |
| B2 |  |  | decreased phosphorylation of c-FMS |
| B3 | showed binding | best binding ability |  |
